Results as given in patent US20190055314A1 (ADAGENE, published 2019).

T1: Hu_CRD3 (human, limits assumed)
T1 construct: also called human CD137 CRD3
T1 chain: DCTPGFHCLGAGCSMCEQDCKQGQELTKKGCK

T2: Hu_CRD4 (human, UniProt Q07011 119-159, limits assumed)
T2 construct: also called human CD137 CRD4
T2 chain: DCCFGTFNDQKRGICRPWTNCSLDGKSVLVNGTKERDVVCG


Experiments:
Hu_CRD2-CRD3 = target: T3, Hu_CRD2-CRD3 (human, UniProt Q07011 46-118, limits assumed); test: flow cytometry, yeast display [Cont.]
T3 construct: also called two CRD units (CRD2-CRD3) of human CD137

Hu_CRD1-CRD2 = target: T4, Hu_CRD1-CRD2 (human, UniProt Q07011 24-86, limits assumed); test: flow cytometry, yeast display [Cont.]
T4 construct: also called two CRD units (CRD1-CRD2) of human CD137

Hu_CRD3 = target: T1, Hu_CRD3; test: flow cytometry, yeast display [Cont.]
Hu_CRD4 = target: T2, Hu_CRD4; test: flow cytometry, yeast display [Cont.]
[1] = target: T5, full-length human CD137 on the cell surface (human, UniProt Q07011 18-255); test: flow cytometry, yeast display [Cont.]
T5 construct: also called Human WT

Hu_CRD2-CRD3-CRD4 = target: T6, Hu_CRD2-CRD3-CRD4 (human, UniProt Q07011 46-159, limits assumed); test: flow cytometry, yeast display [Cont.]
T6 construct: also called three CRD units (CRD2-CRD3-CRD4) of human CD137

Hu_CRD3-CRD4 = target: T7, Hu_CRD3-CRD4 (human, UniProt Q07011 87-159, limits assumed); test: flow cytometry, yeast display [Cont.]
T7 construct: also called two CRD units (CRD3-CRD4) of human CD137

Hu_CRD1-CRD2-CRD3 = target: T8, Hu_CRD1-CRD2-CRD3 (human, UniProt Q07011 24-118, limits assumed); test: flow cytometry, yeast display [Cont.]
T8 construct: also called three CRD units (CRD1-CRD2-CRD3) of human CD137

human CD137 ligand = target: T9, human CD137 ligand (human, UniProt P41273 71-254, limits assumed, biotinylated in Example 6); test: flow cytometry
T9 construct: also called HuCD137L; biotinylated CD137L
T9 sequence (P41273 71-254 limits assumed): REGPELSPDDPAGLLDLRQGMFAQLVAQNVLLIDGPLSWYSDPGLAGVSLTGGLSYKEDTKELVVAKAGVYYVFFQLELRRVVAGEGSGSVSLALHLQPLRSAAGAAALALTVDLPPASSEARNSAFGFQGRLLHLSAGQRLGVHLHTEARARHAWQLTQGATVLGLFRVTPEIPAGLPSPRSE

| % in upper right quadrant (Hu_CRD2-CRD3) | Mean (Hu_CRD2-CRD3) | % in upper right quadrant (Hu_CRD1-CRD2) | Mean (Hu_CRD1-CRD2) | % in upper right quadrant (Hu_CRD3) | Mean (Hu_CRD3) | % in upper right quadrant (Hu_CRD4) | Mean (Hu_CRD4) | binding result [1] | % in upper right quadrant (Hu_CRD2-CRD3-CRD4) | Mean (Hu_CRD2-CRD3-CRD4) | % in upper right quadrant (Hu_CRD3-CRD4) | Mean (Hu_CRD3-CRD4) | % in upper right quadrant (Hu_CRD1-CRD2-CRD3) | Mean (Hu_CRD1-CRD2-CRD3) | binding result (human CD137 ligand) | Binder |
| --- | --- | --- | --- | --- | --- | --- | --- | --- | --- | --- | --- | --- | --- | --- | --- | --- |
| 0.19% | 15900 | 0.16% | 43800 | 0.2% | 46000 | 0.15% | 9270 | no binding | 0.026% | 3260 | 0.24% | 10000 | 0.19% | 4700 | – | mouse CD137L (ligand, UniProt P41274 104-309, looked up) RTEPRPALTITTSPNLGTRENNADQVTPVSHIGCPNTTQQGSPVFAKLLAKNQASLCNTTLNWHSQDGAGSSYLSQGLRYEEDKKELVVDSPGLYYVFLELKLSPTFTNTGHKVQGWVSLVLQAKPQVDDFDNLALTVELFPCSMENKLVDRSWSQLLLLKAGHRLSVGLRAYLHGAQDAYRDWELSYPNTTSFGLFLVKPDNPWE |
| – | – | – | – | – | – | – | – | – | – | – | – | – | – | – | no binding | full-length mouse CD137 on the cell surface (receptor) VQNSCDNCQPGTFCRKYNPVCKSCPPSTFSSIGGQPNCNICRVCAGYFRFKKFCSSTHNAECECIEGFHCLGPQCTRCEKDCRPGQELTKQGCKTCSLGTFNDQNGTGVCRPWTNCSLDGRSVLKTGTTEKDVVCGPPVVSFSPSTTISVTPEGG |
